A short description of this data set: yeast display, Sf9 membrane polyspecificity reagent, FACS + sequencing; frameworks hold sequencing errors. The essentials:
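After 36–48 hours of galactose induction, yeast (Saccharomyces cerevisiae BJ5465) displaying a synthetic nanobody library were stained at 4 °C for 1 hour with 10% biotinylated, detergent-solubilized Sf9 membrane reagent. Streptavidin microbeads enriched the stained cells before FACS sorting into low and high (top ~1%) gates on anti-HA and streptavidin fluorescence. Each clone's polyreactivity label reflects its gate of origin.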
In the case of “QVQIVESGGGLVQAGGSLRLSCAASGFNYRGYAMGWYRQAPGKERELVASIRWNGGSTYYADSVKGRFTISRDNAKNTVYLLMNSLKPEDTAVYYCAAAYRYYGVAYGYDWGQGTQVTVSS”, the “polyreactivity (PSR sort gate)” value is listed as “high polyreactivity”.

Take “QVQIVESGGGLVQAGGSLRLSCAASGFTFYGYAMGLYRQAPGKERELVATISGRGGRTYYADSVKGLFTISRDNAKNTVYLQMNSLKPVDTAVYFCAAVSSYRYYGDYYWGQGTQVTVSS”: the “polyreactivity (PSR sort gate)” value is given as “high polyreactivity”.

Consider “QVQIVESGGGLVQAGGSLRLSCAASGFTFYYYAMGWYRQAPGKERELVAAIDTGGSTNYADSVKGRFTISRDNAKNTVYLQMNRLKPEDTSVYYCNADTPDHYGHYDYWGQGTQVTVSS”, for which the “polyreactivity (PSR sort gate)” value is listed as “low polyreactivity”.

Consider “QVQIVESGGGLVQAGGSLRLSCAASGFTIPPYTMGWYRQAPRKEREFVATITASGGSTYYADSVKGRFTISRDNAKNTVYLQMNSLNPEDTAVYYCNADYYSLYFFAWYRTNDFWGQGTQVTVSS”, for which the “polyreactivity (PSR sort gate)” value is listed as “low polyreactivity”.

As for “QVQIVESGGGLVQAGGSLRLSCAASGGTFYLYAKGWYRQAPGKERELVAAITTSGGSTYYADSVKGRFTISRDHAKNTVYLQMNSLKPEDTAVYYCNKDLSSTKFDYWGQGTQVTVSS”, the “polyreactivity (PSR sort gate)” value is given as “low polyreactivity”.

Consider “QVQIVESGGGLVQAGGSLRLSCAASGITFGPYAMGWYRQAPWKERELVAAISYSGGNTYYADSVKGRFTISRDNAKNTVYLQMNSLKPEDTAVDYCARVQSLKYNYWGQGTQVTVSS”, for which the “polyreactivity (PSR sort gate)” value is reported as “high polyreactivity”.

With “QVQIVESGGGLVQAGGSLRLSCAASGITFPRYAMGWYRQAPGKESELVATITSRGGSTYYADSVKGRFTISRDNAKNTVYLQMISLKPEDTAVYYFNDRHYIFWSRYDYWGQGTQVTVSS”, the “polyreactivity (PSR sort gate)” value is “high polyreactivity”.

With “QVQIVESGGGLVQAGGSLRLSCAASGITFSSYAMGWYRQAPGKERELVAAITRTGGRTYYADSVKGRFTISRDNAKNTVYLQMNSLKPEDTAVYYCAAYYIAYYYWGQGTQVTVSS”, the “polyreactivity (PSR sort gate)” value is recorded as “high polyreactivity”.

With “QVQIVESGGGLVQAGGSLRLSCAASGNNFRYNTMGWYRQAPGKERELVAVITRRGSSTYYADSVKGRCTISRDNAKNTVYLQMNRLKPEDTAVYYCAAAPYYVTLVTRRDYWGQGTQVTVSS”, the “polyreactivity (PSR sort gate)” value was “high polyreactivity”.

For “QVQIVESGGGLVQAGGSLRLSCAASGRIFRSNTMGWYRPAPGKERELVARISKRGGSTNYADSVKGRFTISRDIAKNTVYLQMNRLKPEDTAVYYCAARYYYAGYYVKYYYWGQGTQVTVSS”, the “polyreactivity (PSR sort gate)” value is recorded as “high polyreactivity”.

As for “QVQIVESGGGLVQAGGSLRLSCAASGRIFYWNVMGWYRQAPGKERELVAAITRSSGGTSTYADSVKGRFTISRVNAKNTVYLQMNSLKPEDTAVYYCATRRRQAKSGRAYDYWGQGTQVTVSS”, the “polyreactivity (PSR sort gate)” value is listed as “high polyreactivity”.

As to “QVQIVESGGGLVQAGGSLRLSCAASGRTFAGNAMGWYRQAPGKERELVAGISSGGSTNNADSVKGRFTISRDNAKNTVYLQMNSLNPEDTAVYYCAKRYFRKGYPLFHYAYGYWGQGTQVTVSS”, the “polyreactivity (PSR sort gate)” value is “high polyreactivity”.

As to “QVQIVESGGGLVQAGGSLRLSCAASGRTFIGNVMGWYRQAPGKERELVAAISKSGTRTYYADSVKGRFTISRDNAKNTFYLQMNSLKPEDTAVYYCAKDHYPRTDDFGYWGQGTQVTVSS”, the “polyreactivity (PSR sort gate)” value is “high polyreactivity”.

Turning to “QVQIVESGGGLVQAGGSLRLSCAASGRTFKYYAMGWYRPAPGKERELVAAISYSGGSTYYADSVKGRFTISRDNAKNTVYLQMNSLKPEDTAVYYCAARFTRYYSGCDQKYDYWGQGTQVTVSS”, the “polyreactivity (PSR sort gate)” value is “high polyreactivity”.

On to “QVQIVESGGGLVQAGGSLRLSCAASGRTFPYYVMGWYRHAPGKERELVATISSSGRTYYADSVKGRFTISRDNAKNTVYLQMNSLKPEDTAVYYCAARFRWNQNYHFYYWGQGTQVTVSS”, for which the “polyreactivity (PSR sort gate)” value was “high polyreactivity”.

For the sequence “QVQIVESGGGLVQAGGSLRLSCAASGRTLYGYAMGWYRQAPGKEREMVASIRSGGSTNYADSVKGRFTISRDNAKNTVYLQMNCLKPEDTAVYYCADDPYYSYGYYHAHGRDVGYWGQGTQVTVSS”, the “polyreactivity (PSR sort gate)” value is reported as “low polyreactivity”.

Consider “QVQIVESGGGLVQAGGSLRLSCAASGSIFGTYAMGWYRQAPGKERELVAAITRRGGSTFYADSVKGRFTISRDNAKNTVYLQMNSLKPEDTAVYDCAAPPYYWGQGTQVTVSS”, for which the “polyreactivity (PSR sort gate)” value is reported as “high polyreactivity”.

Take “QVQIVESGGGLVQAGGSLRLSCAASGSIFPRMAMGWYIQAPGKERELVAAITTGGITNYADSVKGRFTISRDHAKNTVYLQMNSLNPDDTAVYYCAATSWRYQQSTRYKGRRYYSWGQGTQVTVSS”: the “polyreactivity (PSR sort gate)” value is “high polyreactivity”.

For “QVQIVESGGGLVQAGGSLRLSCAASGSIFRYYALGWYRQAPGKERELVAAISSGTITNYADSVKGRFTISRDNAKNTVYLQMNSLKPEDTAVYYCAADTWYLGYPDYWLDYWGQGTQVTVSS”, the “polyreactivity (PSR sort gate)” value was “low polyreactivity”.

For “QVQIVESGGGLVQAGGSLRLSCAASGSIFSYYAMGWYRQAPGKERELVAGITGGGSTDYADSVKGRFTISRDNAKITVYLQMISLKPEDTAVYYCSTDGKPSFYSFDYCGQGTQVTVSS”, the “polyreactivity (PSR sort gate)” value is “low polyreactivity”.

Regarding “QVQIVESGGGLVQAGGSLRLSCAASGSIFTYNAMGWYRQAPGKERELVAAISYSGVRTYYADSVKGRFTISRDNAKNTVYLQMNSLKPEDTAVYYCNTRYPYSVLKYGYWGQGTQVTVSS”, the “polyreactivity (PSR sort gate)” value was “high polyreactivity”.

In the case of “QVQIVESGGGLVQAGGSLRLSCAASGSIFYYYAMGWYRQAPGKERELVAAITRSGGSTYYADSVKGRFTISRDNEKNTVYLQMNSLKPEDTAVYYCAKDAHAYRDLDYWGQGTQVTVSS”, the “polyreactivity (PSR sort gate)” value is “low polyreactivity”.

For “QVQIVESGGGLVQAGGSLRLSCAASGSIIYRNAMGWYRQAPGKERELVAAIRTSSGSTYYAVSVKGRFTISRDNAKNTVYLQMNSLKPVDTAVYYCGAPRLYGYYSCGQGTQVTVSS”, the “polyreactivity (PSR sort gate)” value was “low polyreactivity”.

Take “QVQIVESGGGLVQAGGSLRLSCAASGSILIPYAMGWYRQAPGKERELVAAISRTTRTYYADSVKGRFTISRDNAKNTVYLQMNCLKPEDTAVYYCAADRVYPYFRYGFWGQGTKVTVSS”: the “polyreactivity (PSR sort gate)” value is recorded as “high polyreactivity”.

On to “QVQIVESGGGLVQAGGSLRLSCAASGSTFEVNAMGWYRQAPGKERELVAVITSGGSTNYADSVKGPFTISRDNAKNTVYLQMNSLKPEDTAVYYCAKDSRTLEDYWGQGTQVTVSS”, for which the “polyreactivity (PSR sort gate)” value is given as “low polyreactivity”.

For “QVQIVESGGGLVQAGGSLRLSCAASGSTFGSNAMGWYRQAPGKERELGAAISWTGGSTYYADSVKGRFTISRDNAKNTVYLQLNSLKPEDTAVYYCNKRIAESDTTVTYDYWGQGTQVNVSS”, the “polyreactivity (PSR sort gate)” value is reported as “low polyreactivity”.

As to “QVQIVESGGGLVQAGGSLRLSCAASGSTFNYNAMGWYRQAPGKERELVAAITFTGGSTYADSVKGRFTISRDNAKNTVYLQMNSLKPEDTAVYYCAATIQGHDYLGTGYDYWGQGTQVTVSS”, the “polyreactivity (PSR sort gate)” value is “low polyreactivity”.

Regarding “QVQIVESGGGLVQAGGSLRLSCAASGSTFQCYAMGWYRQAPGKERQLVAAINKSGGTTYYADSVKGRFTISRDNAKNTVYLQMNSLNPEDTAVYSCATDNPVVYQPCNMDYWGQGTQVTVSS”, the “polyreactivity (PSR sort gate)” value is “low polyreactivity”.

For the sequence “QVQIVESGGGLVQAGGSLRLSCAASGSTFVVYAMGWYRQAPGKERELVAAISYRAGITYYADSVKGRFTISRDNAKNTVYLQMNSLKPEDTAVYYCAADRYYGVGSGYWGQGTQVTVSS”, the “polyreactivity (PSR sort gate)” value is reported as “high polyreactivity”.

For “QVQIVESGGGLVQAGGSLRLSCAAYGSIFQPYAMGWYRQAPGKERELVAAITNGGSTYYADSVKGRFTISRDNAKNTVYLQMNSLKPEDTGVYYCAADVQSSHEYDYWGKGTQVTVSS”, the “polyreactivity (PSR sort gate)” value was “low polyreactivity”.

Consider “QVQIVESGGGLVQAGGSLRLSCAAYGSIFRLYAMGWYRQAPGKERDFVARIRWRGGSTNYPDSVKASFTISRDNAKNTVFVQMNSQKTVDTAVYYCAAKQGTVRAHTFVPWYDYWGQGTQVSVSS”, for which the “polyreactivity (PSR sort gate)” value was “high polyreactivity”.

As to “QVQIVESGGGLVQAGGSLRLSCADSGGTFRRYAMGWYRQAPGKEREFVARIYDGGTTYYADSVKGRFTISRDNAKNTVYLQMNSLKPEDTAVYYCAAYPYSRYYYYSNYYWGQGTQVTVSS”, the “polyreactivity (PSR sort gate)” value is reported as “high polyreactivity”.

Consider “QVQIVESGGGLVQAGGSLRLSCDASGSTFVRYAMGWYRQAHGKERELVAAISYRGGSTYYADSVKGRFTISRDNAKNTVYLQMNSLKPEDTAVYYCAAESRHVEGEYWGQGTQVTVSS”, for which the “polyreactivity (PSR sort gate)” value is “high polyreactivity”.

Consider “QVQIVESGGGLVQAGGSLRLSCSASGRIFVGNAMGWYRQAPGKERELVAAISQRGGSTYYADSVKGRFTISRDYAKNTVYFQMNSRKQDVTAVYSCNAACRRAATSIWSWYDHWGQGTQETVSS”, for which the “polyreactivity (PSR sort gate)” value was “low polyreactivity”.

For “QVQIVESGGGLVQAGGSLRLSFAASGSIFSYNSMGWYRQAPGRERELVAAITPGCTSYYADSVKGLFRISRDNAKNTVYIQMNSLTPEDTAVYYCAADGLSRDTLYPYDYWGQGSQVTVSS”, the “polyreactivity (PSR sort gate)” value is reported as “low polyreactivity”.

For the sequence “QVQIVESGGGLVQAGGSLSLSCAASGYNFYSYAMGWYRQAPGTKRELVAAITNSGGSTYYADSVKGRFTISRDNAKNTVYLQMNSLKPEDTAVYSCNASYWRAYSYKYDYWGQGTQVTVSS”, the “polyreactivity (PSR sort gate)” value is listed as “high polyreactivity”.

Consider “QVQIVESGGGLVQAGGSRRLSCAASGIIFYVNVMGWYRQAPGKERELVASNDGSGDTTYYADSVKGRFTISRDNAKNTVYLQMNSLKPEDTAVYYCAADKYSFWSYYPDDDYIYDYWGQGNQVTVSS”, for which the “polyreactivity (PSR sort gate)” value was “low polyreactivity”.

Take “QVQIVESGGGLVQEGGSLRISCAASGIIFRRYAMGWYRQAPGKERELVATITRSGSTNYAESVKGRFTISRDNAKNSVYLQMNSLKPEDTAVYYCNADDIRGGVGYDYWGQGTQVTVSS”: the “polyreactivity (PSR sort gate)” value is recorded as “high polyreactivity”.

“QVQIVESGGGLVQEGGSLRLSCAASGFIFRRNAMGWYRQAPGKERELVAAISSRGGTTHYADSVKGRFTISRDNAKNTVYLQMNSLKPEDSSVYYCATTPQRGGLGGVDYWGQGTQVTVSS”: the “polyreactivity (PSR sort gate)” value is recorded as “high polyreactivity”.

In the case of “QVQIVESGGGVVQAGGSLRLSCAASGYILDRNSMGWYRQAPGKERELVAVISWGGTRTYYADSVKGRFTISRDNAKNTVSLQMNSLKPVDTAVYYCNGKGWYYKYDYWGQGTQVTVSS”, the “polyreactivity (PSR sort gate)” value is “high polyreactivity”.

For “QVQIVESGGRLVQAGGSLRLSCAASGNIFRYNAMGWYRQAPGKERELVAAITLSGGDTYYADSVKGRFTISRDNAKNIVYLQMNSLKPEDTAVYYCAKDPRSDYTDGMNYWGQGTQLTVSS”, the “polyreactivity (PSR sort gate)” value is “low polyreactivity”.

The values are drawn from the nanobody polyreactivity screen of Harvey et al. (2022).
